This note sets out measurements from US20240360238A1 (MAGENTA THERAPEUTICS, published 2024).

Substitutions are numbered along the chain they refer to.

Broadly, the koff is a measure of how fast the partners let go of each other. As usually defined, the kon is a measure of how fast the partners come together.

First the molecules themselves.
B1: HC-248/LC-248 (Ab248) (antibody, V domains shown)
VH: EVQLVQSGAEVKKPGESLKISCKGSGYRFTTSWIGWVRQMPGKGLEWMGIIYPGDSDTRYSPSFQGQVTISADKSISTAYLQWSSLKASDTAMYYCARHGLGYNGYEGAFDIWGQGTLVTVSS
VL: DIQMTQSPSSLSASVGDRVTITCRASQGIGSALAWYQQKPGKAPKLLIYDASTLESGVPSRFSGSGSGTDFTLTISSLQPEDFATYYCQQLNGYPLTFGQGTRLEIK
notes: IgG on anti-human Fc sensors; hIgG1/hKappa
B2: HC-245/LC-245 (Ab245) (antibody, V domains shown)
VH: B1 VH
VL: B1 VL with L91F
notes: as for B1
B3: HC-247/LC-247 (Ab247) (antibody, V domains shown)
VH: B1 VH with E1Q, E10A, S32Y, D73G, L101R, L118M
VL: B1 VL with Q27R, G30S, S31D, A32Y, T53N, S56T, L91A, G93S, Y94F, L96I
notes: as for B1
B4: HC-246/LC-246 (Ab246) (antibody, V domains shown)
VH: B1 VH with E1Q, E10A, S32Y, D73G, L101R, L118M
VL: B1 VL with L91F
notes: as for B1
B5: HC-22/LC-22 (Ab22) (antibody, IgG1, V domains shown)
VH: QVQLKESGPGLVQPSQTLSLTCTVSGFSLTSYLVHWVRQPPGKTLEWVGLMWNDGDTSYNSALKSRLSISRDTSKSQVFLKMHSLQAEDTATYYCARESNLGFTYWGHGTLVTVSS
VL: DIQMTQSPASLSASLEEIVTITCKASQGIDDDLSWYQQKPGKSPQLLIYDVTRLADGVPSRFSGSRSGTQYSLKISRPQVADSGIYYCLQSYSTPYTFGAGTKLELK
notes: From rat immunization/hybridoma; purified IgG in BLI; also called 022
B6: HC-27/LC-27 (Ab27) (antibody, IgG1, V domains shown)
VH: EVQLVESGGGLVQPGRSMKLSCKASGFTFSNYDMAWVRQAPTRGLEWVASISYDGITAYYRDSVKGRFTISRENAKSTLYLQLVSLRSEDTATYYCTTEGGYVYSGPHYFDYWGQGVMVTVSS
VL: DIQMTQSPSSMSVSLGDTVTITCRASQDVGIFVNWFQQKPGRSPRRMIYRATNLADGVPSRFSGSRSGSDYSLTISSLESEDVADYHCLQYDEFPRTFGGGTKLELK
notes: From rat immunization/hybridoma; purified IgG in BLI; also called 027
B7: HC-25/LC-25 (Ab25) (antibody, IgG1, V domains shown)
VH: QIQLVQSGPELKKPGESVKISCKASGYTFTDYAIHWVKQAPGQGLRWMAWINTETGKPTYADDFKGRFVFSLEASASTAHLQISNLKNEDTATFFCAGGSHWFAYWGQGTLVTVSS
VL: SYELIQPPSASVTLENTVSITCSGDELSNKYAHWYQQKPDKTILEVIYNDSERPSGISDRFSGSSSGTTAILTIRDAQAEDEADYYCLSTFSDDDLPIFGGGTKLTVL
notes: From rat immunization/hybridoma; purified IgG in BLI; also called 025
B8: HC-21/LC-21 (Ab21) (antibody, IgG1, V domains shown)
VH: QIQLVQSGPELKKPGESVKISCKASGYTFTDYAVYWVIQAPGKGLKWMGWINTYTGKPTYADDFKGRFVFSLETSASTANLQISNLKNEDTATYFCARGAGMTKDYVMDAWGRGVLVTVS
VL: SYELIQPPSASVTLGNTVSLTCVGDELSKRYAQWYQQKPDKTIVSVIYKDSERPSDISDRFSGSSSGTTATLTIHGTLAEDEADYYCLSTYSDDNLPVFGGGTKLTVL
notes: From rat immunization/hybridoma; purified IgG in BLI; also called 021
B9: HC-24/LC-24 (Ab24) (antibody, IgG1, V domains shown)
VH: EVQLVESGGGLVQSGRSLKLSCAASGFTVSDYYMAWVRQAPTKGLEWVATINYDGSTTYHRDSVKGRFTISRDNAKSTLYLQMDSLRSEDTATYYCARHGDYGYHYGAYYFDYWGQGVMVTVSS
VL: DIVLTQSPALAVSLGQRATISCRASQTVSLSGYNLIHWYQQRTGQQPKLLIYRASNLAPGIPARFSGSGSGTDFTLTISPVQSDDIATYYCQQSRESWTFGGGTNLEMK
notes: From rat immunization/hybridoma; purified IgG in BLI; also called 024
B10: HC-19/LC-19 (Ab19) (antibody, IgG1, V domains shown)
VH: EVQLQESGPGLVKPSQSLSLTCSVTGYSISSNYRWNWIRKFPGNKVEWMGYINSAGSTNYNPSLKSRISMTRDTSKNQFFLQVNSVTTEDTATYYCARSLRGYITDYSGFFDYWGQGVMVTVSS
VL: DIRMTQSPASLSASLGETVNIECLASEDIFSDLAWYQQKPGKSPQLLIYNANSLQNGVPSRFSGSGSGTRYSLKINSLQSEDVATYFCQQYKNYPLTFGSGTKLEIK
notes: From rat immunization/hybridoma; purified IgG in BLI; also called 019
B11: HC-23/LC-23 (Ab23) (antibody, IgG1, V domains shown)
VH: EVQLQQYGAELGKPGTSVRLSCKVSGYNIRNTYIHWVHQRPGEGLEWIGRIDPTNGNTISAEKFKSKATLTADTSSNTAYMQFSQLKSDDTAIYFCAMNYEGYADYWGQGVMVTVSS
VL: DIQMTQSPSFLSASVGDRLTINCKASQNINKYLNWYQQKLGEAPKRLIFKTNSLQTGIPSRFSGSGSGTDYTLTISSLQPEDVATYFCFQYNIGFTFGAGTKLELK
notes: From rat immunization/hybridoma; purified IgG in BLI; also called 023
B12: HC-20/LC-20 (Ab20) (antibody, IgG1, V domains shown)
VH: B11 VH with V24L, N28K, H38N, E43K, T54A, S60Y, A68V, F83L, I93L, A104E
VL: B11 VL with R18S, L19V, F49H, N52D, N92K, I93S, T96M
notes: From rat immunization/hybridoma; purified IgG in BLI; also called 020
B13: HC-28/LC-28 (Ab28) (antibody, IgG1, V domains shown)
VH: B11 VH with N28K, H38N, E43K, T54A, S60Y, A68V, F83L, I93L, A104E
VL: B11 VL with R18S, L19V, F49H, T56P, I58F, T85A, I93S
notes: From rat immunization/hybridoma; purified IgG in BLI; also called 028
B14: HC-77/LC-77 anti-CD117-ADC (conjugated to an amatoxin) (antibody, V domains shown)
VH: B1 VH with E1Q, E10A, S32Y, D73G, L101R, L118M
VL: B1 VL with M4L, I29V, G30I, T53I, L91F, G93S, Q100G, R103K, L104V
modifications: antibody conjugated to an amatoxin; site not stated
B15: HC-245/LC-245 anti-CD117-ADC (conjugated to an amatoxin) (antibody, V domains shown)
VH: B1 VH
VL: B1 VL with L91F
modifications: antibody conjugated to an amatoxin; site not stated
B16: HC-247/LC-247 anti-CD117-ADC (conjugated to an amatoxin) (antibody, V domains shown)
VH: B1 VH with E1Q, E10A, S32Y, D73G, L101R, L118M
VL: B1 VL with Q27R, G30S, S31D, A32Y, T53N, S56T, L91A, G93S, Y94F, L96I
modifications: antibody conjugated to an amatoxin; site not stated
B17: HC-81/LC-81 anti-CD117-ADC (conjugated to an amatoxin) (antibody, V domains shown)
VH: B1 VH with E1Q, E10A, S32Y, D73G, L101R, L118M
VL: B1 VL with M4L, I29V, G30I, L91F, G93S, Q100G, R103K, L104V
modifications: antibody conjugated to an amatoxin; site not stated
B18: HC-79/LC-79 anti-CD117-ADC (conjugated to an amatoxin) (antibody, V domains shown)
VH: B1 VH with E1Q, E10A, S32Y, D73G, L101R, L118M
VL: B1 VL with M4L, I29V, T53I, L91F, G93S, Q100G, R103K, L104V
modifications: antibody conjugated to an amatoxin; site not stated
B19: HC-248/LC-248 anti-CD117-ADC (conjugated to an amatoxin) (antibody, V domains shown)
VH: B1 VH
VL: B1 VL
modifications: antibody conjugated to an amatoxin; site not stated
B20: HC-246/LC-246 anti-CD117-ADC (conjugated to an amatoxin) (antibody, V domains shown)
VH: B1 VH with E1Q, E10A, S32Y, D73G, L101R, L118M
VL: B1 VL with L91F
modifications: antibody conjugated to an amatoxin; site not stated

The target of the first assay is T1, purified human CD117 ectodomain (R&D Systems #332-SR) (human, UniProt P10721 26-524).
T1 construct: extracellular domain; Bought protein; also called c-kit; purified recombinant human CD117 ectodomain
T1 sequence (P10721 26-524): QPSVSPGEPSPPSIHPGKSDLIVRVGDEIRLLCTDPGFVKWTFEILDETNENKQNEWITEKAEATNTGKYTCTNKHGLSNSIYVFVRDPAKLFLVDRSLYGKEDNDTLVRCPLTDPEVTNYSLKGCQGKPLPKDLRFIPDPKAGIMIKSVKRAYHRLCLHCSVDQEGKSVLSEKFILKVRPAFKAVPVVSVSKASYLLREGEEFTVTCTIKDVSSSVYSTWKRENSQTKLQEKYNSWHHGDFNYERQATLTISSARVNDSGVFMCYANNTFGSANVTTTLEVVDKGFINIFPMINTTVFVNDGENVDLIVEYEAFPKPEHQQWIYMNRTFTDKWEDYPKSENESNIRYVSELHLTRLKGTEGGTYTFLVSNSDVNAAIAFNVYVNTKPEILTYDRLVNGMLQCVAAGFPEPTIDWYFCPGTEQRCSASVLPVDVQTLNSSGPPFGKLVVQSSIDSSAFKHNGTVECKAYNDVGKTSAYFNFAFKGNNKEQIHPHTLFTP
Nature of the assay: BLI; kdis compared to HC-1/LC-1 (Ab1). Background: BLI is a label-free optical method that tracks binding on a fibre tip over time.
As for B1, the “Fold improvement (off-rate)” value was found to be 7.1 fold.
As for B2, the “Fold improvement (off-rate)” value came out at 7.9 fold.
Regarding B3, the “Fold improvement (off-rate)” value is 3.6 fold.
As to B4, the “Fold improvement (off-rate)” value turned out to be 8.9 fold.

The target of another assay is T2, purified rhesus CD117 ectodomain (rhesus, UniProt F6V858 26-524).
T2 construct: extracellular domain; also called rhesus antigen
Briefly: BLI, purified IgG on sensor, soluble rhesus ectodomain; apparent monovalent.
B5: the Kd came to 0.0891 nM, the koff came to 0.000155 s⁻¹ and the kon was found to be 1.74e+06 M⁻¹ s⁻¹.
Taken in the same sequence, the figures for B6 were 0.89 nM, 0.000275 s⁻¹ and 309000 M⁻¹ s⁻¹.
For B7, in that order: 0.81 nM, 0.00195 s⁻¹ and 2.41e+06 M⁻¹ s⁻¹.
Turning to B8, the Kd is 0.869 nM, the koff was found to be 0.000357 s⁻¹ and the on-rate constant (kon) was 410000 M⁻¹ s⁻¹.
Turning to B9, the Kd amounted to 19.6 nM, the koff worked out at 0.000777 s⁻¹ and the kon is 39700 M⁻¹ s⁻¹.
For B10, in that order: 2.34 nM, 0.000415 s⁻¹ and 177000 M⁻¹ s⁻¹.
B11: the Kd was 7.62 nM, the koff turned out to be 0.00214 s⁻¹ and the kon came to 280000 M⁻¹ s⁻¹.
For B12, in that order: 1.39 nM, 0.000585 s⁻¹ and 421000 M⁻¹ s⁻¹.
Taken in the same sequence, the figures for B13 were 3.6 nM, 0.00187 s⁻¹ and 521000 M⁻¹ s⁻¹.

A further assay addresses T1, purified human CD117 ectodomain (R&D …). Nature of the assay: BLI, purified IgG on sensor, soluble ectodomain; apparent monovalent.
As to B5, the Kd is 0.0964 nM, the dissociation rate constant (koff) came out at 0.000221 s⁻¹ and the kon is 2.29e+06 M⁻¹ s⁻¹.
For B6, in that order: 0.53 nM, 0.000378 s⁻¹ and 712000 M⁻¹ s⁻¹.
On to B7, for which the Kd came to 0.52 nM, the koff stood at 0.00153 s⁻¹ and the kon was 2.94e+06 M⁻¹ s⁻¹.
Taken in the same sequence, the figures for B8 were 0.715 nM, 0.000437 s⁻¹ and 612000 M⁻¹ s⁻¹.
For B9, in that order: 0.986 nM, 0.00011 s⁻¹ and 111000 M⁻¹ s⁻¹.
With B10, the Kd worked out at 2.35 nM, the koff worked out at 0.000481 s⁻¹ and the kon amounted to 205000 M⁻¹ s⁻¹.
In the case of B11, the Kd came to 1.49 nM, the koff is 0.000713 s⁻¹ and the kon was found to be 478000 M⁻¹ s⁻¹.
Taken in the same sequence, the figures for B12 were 0.254 nM, 0.000202 s⁻¹ and 794000 M⁻¹ s⁻¹.
Taken in the same sequence, the figures for B13 were 0.403 nM, 0.000368 s⁻¹ and 914000 M⁻¹ s⁻¹.

The target in a further assay is CD117 on Kasumi-1 cells and primary human CD34+ bone marrow cells (human, UniProt P10721 26-976). Nature of the assay: cell-based or functional assay.
Sequence of CD117 on Kasumi-1 cells and primary human CD34+ bone marrow cells (P10721 26-976): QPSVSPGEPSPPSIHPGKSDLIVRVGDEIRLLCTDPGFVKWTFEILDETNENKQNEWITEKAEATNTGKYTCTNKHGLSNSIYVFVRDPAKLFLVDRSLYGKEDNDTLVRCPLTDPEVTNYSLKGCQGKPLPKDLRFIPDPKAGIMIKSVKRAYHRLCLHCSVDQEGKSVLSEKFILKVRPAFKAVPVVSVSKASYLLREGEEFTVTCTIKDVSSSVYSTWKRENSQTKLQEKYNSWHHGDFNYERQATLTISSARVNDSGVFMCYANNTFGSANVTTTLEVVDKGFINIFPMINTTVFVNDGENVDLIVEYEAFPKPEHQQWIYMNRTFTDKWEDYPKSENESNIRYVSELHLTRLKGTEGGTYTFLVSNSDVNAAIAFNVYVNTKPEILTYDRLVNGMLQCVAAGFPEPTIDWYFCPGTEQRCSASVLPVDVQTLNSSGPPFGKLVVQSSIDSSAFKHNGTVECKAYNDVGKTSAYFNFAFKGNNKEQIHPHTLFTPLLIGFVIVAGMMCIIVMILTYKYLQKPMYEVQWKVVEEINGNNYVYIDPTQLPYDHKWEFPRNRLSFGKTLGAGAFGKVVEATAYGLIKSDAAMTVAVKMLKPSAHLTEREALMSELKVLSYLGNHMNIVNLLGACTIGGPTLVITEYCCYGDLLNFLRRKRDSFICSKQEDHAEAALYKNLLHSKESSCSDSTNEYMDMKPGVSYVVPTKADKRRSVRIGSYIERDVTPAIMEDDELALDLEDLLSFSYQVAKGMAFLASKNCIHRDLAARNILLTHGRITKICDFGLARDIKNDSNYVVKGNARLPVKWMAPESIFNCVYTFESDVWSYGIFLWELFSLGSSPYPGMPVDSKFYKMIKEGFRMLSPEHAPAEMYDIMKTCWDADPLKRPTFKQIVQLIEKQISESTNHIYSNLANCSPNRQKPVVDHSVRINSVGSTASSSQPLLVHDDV
Consider B14, for which the “% efficacy, killing of primary human CD34+CD90+ cells” value (from here on “% efficacy, killing”) was found to be 54.4% and the “IC50, killing of primary human CD34+CD90+ cells (5 days, flow cytometry counts)” value (“IC50, killing” below) stood at 0.00694 nM.
For B15, in that order: 76.4% and 0.00578 nM.
For B16, in that order: 55.4% and 0.00837 nM.
Taken in the same sequence, the figures for B17 were 68.7% and 0.00377 nM.
B18: the “% efficacy, killing” value came to 63.4% and the “IC50, killing” value turned out to be 0.00709 nM.
Taken in the same sequence, the figures for B19 were 47.8% and 0.00646 nM.
For B20, the “% efficacy, killing” value stood at 67.8% and the “IC50, killing” value was found to be 0.00453 nM.

Another assay concerns the target T1, purified human CD117 ectodomain (R&D …). Nature of the assay: BLI, IgG on anti-human Fc sensor, 33 and 11 nM ectodomain.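 Also: Kd, kon and koff are apparent values, with Kd reported as the apparent monovalent affinity.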
Molecule B1 registered a Kd of 0.922 nM, a koff of 0.000319 s⁻¹ and a kon of 346000 M⁻¹ s⁻¹.
For B2, in that order: 0.813 nM, 0.000285 s⁻¹ and 350000 M⁻¹ s⁻¹.
In turn, B3 yielded a Kd of 1.68 nM, a koff of 0.00063 s⁻¹ and a kon of 374000 M⁻¹ s⁻¹.
In turn, B4 gave a Kd of 0.708 nM, a koff of 0.000255 s⁻¹ and a kon of 361000 M⁻¹ s⁻¹.
